± gives the uncertainty stated by the source.

Sequences and labels used below:
B1: Storkhead-box protein 2, residues 64 to 141; numbered along this chain, Q9P2F5 (parent)
chain: SPISQSQFIPLGEILCLAISAMNSARKPVTQEALMEHLTTCFPGVPTPSQEILRHTLNTLVRERKIYPTPDGYFIVTP

In the data set the parent is B1. The data set can be described thus: abundance fitness (aPCA) (normalised: wild type 0, dead -1); higher = more abundant; growth selection in yeast, the domain comes from the species named. As to conditions: Homo sapiens.
For the variant SPISQSQFIPLGEILCLAISAMNSARKPVTQEALMEHLTTCFPGVPTPSQEWLRHTLNTLVRERKIYPTPDGYFIVTP, the abundance fitness was -0.019 ± 0.056.

Turning to SPISQSQFIPLGEILCLAISAMNSARKPVTQEALMEHLTTCFPGVPTPSQEVLRHTLNTLVRERKIYPTPDGYFIVTP, the abundance fitness was found to be 0.035 ± 0.044.

Consider SPISQSQFIPLGEILCLAISAMNSARKPVTQEALMEHLTTCFPGVPTPSQEYLRHTLNTLVRERKIYPTPDGYFIVTP, for which the abundance fitness amounted to 0.171 ± 0.27.

Turning to SPISQSQFIPLGEILCLAISAMNSARKPVTQEALMEHLTTCFPGVPTPSQESLRHTLNTLVRERKIYPTPDGYFIVTP, the abundance fitness is -0.134 ± 0.054.

On to SPISQSQFIPLGEILCLAISAMNSARKPVTQEALMEHLTTCFPGVPTPSQEKLRHTLNTLVRERKIYPTPDGYFIVTP, for which the abundance fitness is -0.029 ± 0.072.

For the variant SPISQSQFIPLGEILCLAISAMNSARKPVTQEALMEHLTTCFPGVPTPSQELLRHTLNTLVRERKIYPTPDGYFIVTP, the abundance fitness was -0.05 ± 0.052.

For the variant SPISQSQFIPLGEILCLAISAMNSARKPVTQEALMEHLTTCFPGVPTPSQENLRHTLNTLVRERKIYPTPDGYFIVTP, the abundance fitness is -0.46 ± 0.17.

SPISQSQFIPLGEILCLAISAMNSARKPVTQEALMEHLTTCFPGVPTPSQEALRHTLNTLVRERKIYPTPDGYFIVTP: the abundance fitness is -0.085 ± 0.045.

For the variant SPISQSQFIPLGEILCLAISAMNSARKPVTQEALMEHLTTCFPGVPTPSQEGLRHTLNTLVRERKIYPTPDGYFIVTP, the abundance fitness is -0.083 ± 0.036.

Turning to SPISQSQFIPLGEILCLAISAMNSARKPVTQEALMEHLTTCFPGVPTPSQEPLRHTLNTLVRERKIYPTPDGYFIVTP, the abundance fitness was -0.654 ± 0.09.

Turning to SPISQSQFIPLGEILCLAISAMNSARKPVTQEALMEHLTTCFPGVPTPSQEMLRHTLNTLVRERKIYPTPDGYFIVTP, the abundance fitness is 0.056 ± 0.064.

Regarding SPISQSQFIPLGEILCLAISAMNSARKPVTQEALMEHLTTCFPGVPTPSQEELRHTLNTLVRERKIYPTPDGYFIVTP, the abundance fitness is -0.042 ± 0.057.

Regarding SPISQSQFIPLGEILCLAISAMNSARKPVTQEALMEHLTTCFPGVPTPSQECLRHTLNTLVRERKIYPTPDGYFIVTP, the abundance fitness is -0.038 ± 0.094.

For SPISQSQFIPLGEILCLAISAMNSARKPVTQEALMEHLTTCFPGVPTPSQEFLRHTLNTLVRERKIYPTPDGYFIVTP, the abundance fitness is 0.011 ± 0.088.

Turning to SPISQSQFIPLGEILCLAISAMNSARKPVTQEALMEHLTTCFPGVPTPSQETLRHTLNTLVRERKIYPTPDGYFIVTP, the abundance fitness was 0.025 ± 0.069.

As for SPISQSQFIPLGEILCLAISAMNSARKPVTQEALMEHLTTCFPGVPTPSQEHLRHTLNTLVRERKIYPTPDGYFIVTP, the abundance fitness was determined as 0.011 ± 0.092.

Regarding SPISQSQFIPLGEILCLAISAMNSARKPVTQEALMEHLTTCFPGVPTPSQERLRHTLNTLVRERKIYPTPDGYFIVTP, the abundance fitness is -0.086 ± 0.045.

Take SPISQSQFIPLGEILCLAISAMNSARKPVTQEALMEHLTTCFPGVPTPSQEDLRHTLNTLVRERKIYPTPDGYFIVTP: the abundance fitness is -0.043 ± 0.11.

For SPISQSQFIPLGEILCLAISAMNSARKPVTQEALMEHLTTCFPGVPTPSQTILRHTLNTLVRERKIYPTPDGYFIVTP, the abundance fitness is -0.085 ± 0.088.

Regarding SPISQSQFIPLGEILCLAISAMNSARKPVTQEALMEHLTTCFPGVPTPSQRILRHTLNTLVRERKIYPTPDGYFIVTP, the abundance fitness was -0.231 ± 0.049.

Consider SPISQSQFIPLGEILCLAISAMNSARKPVTQEALMEHLTTCFPGVPTPSQYILRHTLNTLVRERKIYPTPDGYFIVTP, for which the abundance fitness was -0.161 ± 0.1.

Regarding SPISQSQFIPLGEILCLAISAMNSARKPVTQEALMEHLTTCFPGVPTPSQCILRHTLNTLVRERKIYPTPDGYFIVTP, the abundance fitness is -0.104 ± 0.077.

As for SPISQSQFIPLGEILCLAISAMNSARKPVTQEALMEHLTTCFPGVPTPSQAILRHTLNTLVRERKIYPTPDGYFIVTP, the abundance fitness is -0.085 ± 0.048.

SPISQSQFIPLGEILCLAISAMNSARKPVTQEALMEHLTTCFPGVPTPSQWILRHTLNTLVRERKIYPTPDGYFIVTP: the abundance fitness is -0.145 ± 0.062.

Take SPISQSQFIPLGEILCLAISAMNSARKPVTQEALMEHLTTCFPGVPTPSQPILRHTLNTLVRERKIYPTPDGYFIVTP: the abundance fitness is 0.009 ± 0.052.

On to SPISQSQFIPLGEILCLAISAMNSARKPVTQEALMEHLTTCFPGVPTPSQDILRHTLNTLVRERKIYPTPDGYFIVTP, for which the abundance fitness came out at 0.028 ± 0.11.

With SPISQSQFIPLGEILCLAISAMNSARKPVTQEALMEHLTTCFPGVPTPSQSILRHTLNTLVRERKIYPTPDGYFIVTP, the abundance fitness is -0.039 ± 0.056.

For SPISQSQFIPLGEILCLAISAMNSARKPVTQEALMEHLTTCFPGVPTPSQHILRHTLNTLVRERKIYPTPDGYFIVTP, the abundance fitness worked out at 0.027 ± 0.18.

With SPISQSQFIPLGEILCLAISAMNSARKPVTQEALMEHLTTCFPGVPTPSQKILRHTLNTLVRERKIYPTPDGYFIVTP, the abundance fitness amounted to 0.003 ± 0.098.

On to SPISQSQFIPLGEILCLAISAMNSARKPVTQEALMEHLTTCFPGVPTPSQQILRHTLNTLVRERKIYPTPDGYFIVTP, for which the abundance fitness was -0.099 ± 0.071.

Turning to SPISQSQFIPLGEILCLAISAMNSARKPVTQEALMEHLTTCFPGVPTPSQVILRHTLNTLVRERKIYPTPDGYFIVTP, the abundance fitness was -0.145 ± 0.051.

Take SPISQSQFIPLGEILCLAISAMNSARKPVTQEALMEHLTTCFPGVPTPSQGILRHTLNTLVRERKIYPTPDGYFIVTP: the abundance fitness was -0.1 ± 0.044.

With SPISQSQFIPLGEILCLAISAMNSARKPVTQEALMEHLTTCFPGVPTPSQNILRHTLNTLVRERKIYPTPDGYFIVTP, the abundance fitness is -0.301 ± 0.17.

For SPISQSQFIPLGEILCLAISAMNSARKPVTQEALMEHLTTCFPGVPTPSQMILRHTLNTLVRERKIYPTPDGYFIVTP, the abundance fitness is -0.203 ± 0.099.

With SPISQSQFIPLGEILCLAISAMNSARKPVTQEALMEHLTTCFPGVPTPSQFILRHTLNTLVRERKIYPTPDGYFIVTP, the abundance fitness was -0.207 ± 0.1.
